Assay results published in publication PMC12087451, “The SmWRKY32-SmbHLH65/SmbHLH85 regulatory module mediates tanshinone biosynthesis in Salvia miltiorrhiza”.

Experiments:
GST-SmWRKY32 [1] = target: T1, GST-SmWRKY32 (Salvia miltiorrhiza, UniProt A0A0D5YAE6 1-129); experiment: EMSA; Chemiluminescent EMSA kit (Beyotime GS009) EMSA/Gel-Shift binding buffer, 25 C, 10 min then 20 min with biotin probe, 6% PAGE; salt and pH not stated; conditions: protein: recombinant; tags: N-terminal GST (pGEX-4T-1); label: biotin (labelled probe); blunt
T1 sequence (A0A0D5YAE6 entry or part of it): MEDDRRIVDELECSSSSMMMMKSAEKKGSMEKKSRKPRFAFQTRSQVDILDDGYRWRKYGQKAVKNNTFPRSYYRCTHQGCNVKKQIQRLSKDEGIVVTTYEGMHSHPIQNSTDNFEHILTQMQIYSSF

GST-SmWRKY32 [2] = target: T1, GST-SmWRKY32; experiment: competition; 50-fold unlabelled mutant competitor; Chemiluminescent EMSA kit (Beyotime GS009) EMSA/Gel-Shift binding buffer, 25 C, 10 min then 20 min with biotin probe, 6% PAGE; salt and pH not stated; conditions: protein: recombinant; tags: N-terminal GST (pGEX-4T-1); label: none; blunt

B1: pSmbHLH65 W-box probe (3 copies) (dsDNA)
DNA 1: TTCATTGACCAAATTTCATTGACCAAATTTCATTGACCAAAT
DNA 2: ATTTGGTCAATGAAATTTGGTCAATGAAATTTGGTCAATGAA
binding result (GST-SmWRKY32 [1]): binds

B2: pSmbHLH65-M cold probe (dsDNA)
DNA 1: TTCAAAAAAAAAATTTCAAAAAAAAAATTTCAAAAAAAAAAT
DNA 2: ATTTTTTTTTTGAAATTTTTTTTTTGAAATTTTTTTTTTGAA
binding result (GST-SmWRKY32 [2]): no binding
